Measured values published in patent publication US20230051715A1 (MABWELL THERAPEUTICS, published 2023).

T1: cynomolgus monkey C1s (produced in house) (cynomolgus monkey, UniProt P09871 16-685 (human entry), limits assumed)
T1 construct: also called CyC1s
T1 chain: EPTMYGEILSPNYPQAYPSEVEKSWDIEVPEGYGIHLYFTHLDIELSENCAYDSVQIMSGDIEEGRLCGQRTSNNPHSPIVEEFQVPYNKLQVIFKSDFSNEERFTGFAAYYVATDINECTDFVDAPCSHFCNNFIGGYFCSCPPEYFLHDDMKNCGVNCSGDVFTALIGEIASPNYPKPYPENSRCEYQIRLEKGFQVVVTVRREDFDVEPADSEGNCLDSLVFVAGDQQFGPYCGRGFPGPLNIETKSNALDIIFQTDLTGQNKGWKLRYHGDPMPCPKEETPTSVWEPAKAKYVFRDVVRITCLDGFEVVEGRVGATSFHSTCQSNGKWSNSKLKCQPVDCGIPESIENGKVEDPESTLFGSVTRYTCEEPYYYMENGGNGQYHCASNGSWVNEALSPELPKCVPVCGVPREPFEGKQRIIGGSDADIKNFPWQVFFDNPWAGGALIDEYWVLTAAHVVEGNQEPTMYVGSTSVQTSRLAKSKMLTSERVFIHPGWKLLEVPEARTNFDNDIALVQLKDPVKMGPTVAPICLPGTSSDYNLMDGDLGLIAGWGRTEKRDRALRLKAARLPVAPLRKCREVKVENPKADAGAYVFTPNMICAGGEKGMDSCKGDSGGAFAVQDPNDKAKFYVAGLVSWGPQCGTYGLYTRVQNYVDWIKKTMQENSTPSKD

T2: human C1s proenzyme (CompTech A103) (human, UniProt P09871 16-688)
T2 construct: also called proenzyme human C1s (native C1s)
T2 sequence (looked up): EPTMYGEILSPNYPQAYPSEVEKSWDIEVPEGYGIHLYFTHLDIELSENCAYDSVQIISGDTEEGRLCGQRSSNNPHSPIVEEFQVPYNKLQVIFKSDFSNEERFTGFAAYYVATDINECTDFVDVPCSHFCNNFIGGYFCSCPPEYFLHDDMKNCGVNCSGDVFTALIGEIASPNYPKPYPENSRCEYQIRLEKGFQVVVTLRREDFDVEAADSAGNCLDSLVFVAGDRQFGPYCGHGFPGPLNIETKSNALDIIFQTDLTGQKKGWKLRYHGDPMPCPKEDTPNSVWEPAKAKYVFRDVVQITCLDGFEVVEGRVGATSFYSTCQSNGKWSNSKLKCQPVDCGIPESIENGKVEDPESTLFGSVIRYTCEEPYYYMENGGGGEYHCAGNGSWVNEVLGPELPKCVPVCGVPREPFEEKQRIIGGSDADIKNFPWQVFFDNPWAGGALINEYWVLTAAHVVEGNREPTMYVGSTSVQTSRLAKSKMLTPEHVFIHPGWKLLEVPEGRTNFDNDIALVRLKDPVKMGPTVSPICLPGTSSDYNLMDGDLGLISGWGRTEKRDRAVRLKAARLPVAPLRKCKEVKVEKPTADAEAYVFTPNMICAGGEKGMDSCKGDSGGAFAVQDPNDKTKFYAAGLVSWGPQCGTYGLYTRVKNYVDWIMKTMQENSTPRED

T3: active human C1s (CompTech A104 C1s Enzyme) (human, UniProt P09871 16-688)
T3 construct: also called human active C1s; active C1s protein
T3 sequence (looked up): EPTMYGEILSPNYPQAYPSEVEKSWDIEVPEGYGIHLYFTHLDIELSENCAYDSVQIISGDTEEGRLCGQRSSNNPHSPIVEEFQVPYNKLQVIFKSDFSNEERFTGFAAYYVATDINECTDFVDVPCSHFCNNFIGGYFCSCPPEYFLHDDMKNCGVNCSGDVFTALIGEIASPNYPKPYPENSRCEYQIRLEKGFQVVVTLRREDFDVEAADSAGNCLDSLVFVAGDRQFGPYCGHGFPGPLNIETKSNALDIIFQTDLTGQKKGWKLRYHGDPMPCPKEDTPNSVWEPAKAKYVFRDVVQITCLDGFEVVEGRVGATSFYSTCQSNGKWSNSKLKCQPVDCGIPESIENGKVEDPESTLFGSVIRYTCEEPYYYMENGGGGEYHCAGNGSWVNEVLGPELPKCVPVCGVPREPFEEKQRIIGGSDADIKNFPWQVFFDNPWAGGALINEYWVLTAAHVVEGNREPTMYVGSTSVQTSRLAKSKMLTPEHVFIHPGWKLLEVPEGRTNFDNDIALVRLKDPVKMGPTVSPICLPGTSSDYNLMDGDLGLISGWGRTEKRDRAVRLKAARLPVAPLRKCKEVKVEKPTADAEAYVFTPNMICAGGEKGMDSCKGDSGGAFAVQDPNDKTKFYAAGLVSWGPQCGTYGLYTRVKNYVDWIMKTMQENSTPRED


Assays:
[1] = target: T1, cynomolgus monkey C1s (produced in …); experiment: BLI (Octet RED96e), antibody on AHC biosensor; C1s Species: Cyno Monkey; R^2 0.9996
Description: (§1) At last, analyte was dissociated in 1×KB for 360 sec. Data analysis was done using OCTET® Data Analysis HT Software (Sartorius AG).

[2] = target: T2, human C1s proenzyme (CompTech A103); experiment: BLI (Octet RED96e), antibody on AHC biosensor; HuC1s Form: Proenzyme; R^2 0.9990
Protocol: (§2) Bio-Layer Interferometry technology was used for anti-C1s antibody affinity measurement and binding kinetics determinations with OCTET® RED96e system (Sartorius AG). Pre-hydrated Anti-Human IgG Fc Capture (AHC) biosensors were first equilibrated in 1×KB (Kinetic Buffer, 1×PBS pH 7.4+0.02% Tween-20+0.1% BSA) for 120 sec for the first baseline, followed by loading with […] anti-C1s antibody (2-7, FIG. 3A; 2-8, FIG. 3B; hz2-7(H1L2), FIG. 3C; hz2-8(H1L2 G80A/T82A, FIG. 3D) onto AHC biosensors for 240 sec. Then, the second baseline signal was established for 120 sec before association with various concentrations of active human C1s (CompTech A104) for 240-360 sec. At last, analyte was dissociated in 1×KB for 360 sec. Anti-C1s antibodies 2-7 and 2-8 were also analyzed against human C1s proenzyme (CompTech A103) (data not shown). Data analysis was carried out using OCTET® Data Analysis HT Software (Sartorius AG). KD, kₒₙ, koff and R² values were calculated for each antibody and target combination, as summarized in FIG. 3E showing high affinity binding with KD values in the low nanomolar to picomolar range.

[3] = target: T3, active human C1s (CompTech A104 C1s …); experiment: BLI (Octet RED96e), antibody on AHC biosensor; HuC1s Form: Active; R^2 0.9990
Protocol: as §2

[4] = target: T1, cynomolgus monkey C1s (produced in …); experiment: BLI (Octet RED96e), antibody on AHC biosensor; C1s Species: Cyno Monkey; R^2 0.9997
Description: as §1

Kd [1] | koff [1] | kon [1] | Kd [2] | koff [2] | kon [2] | Kd [3] | koff [3] | kon [3] | Kd [4] | koff [4] | kon [4] | Binder
1.1 nM | 0.00028 s⁻¹ | 260000 M⁻¹ s⁻¹ | 0.49 nM | 0.00012 s⁻¹ | 250000 M⁻¹ s⁻¹ | 0.49 nM | 0.00012 s⁻¹ | 250000 M⁻¹ s⁻¹ |  |  |  | Anti-C1s antibody 2-8 (antibody, V domains shown, the HC/LC entries may hold it too; also called clone 2-8) VH: EVQLQQSGAELVRPGALVKLSCKASGFNIKEYYMHWVKQRPEQGLEWIGWIDPENGDTIYDPKFQGKASITADTSSNTAYLQLSSLTSEDTAVYYCARSRLFFAYWGQGTLVTVSA VL: DIVMTQSHKFMSTSVGDRVSFTCKASQDVRTAVDWYQQKPGQSPKLLIYSASYRYTGVPDRFTGTGSGTDFTFTISSVQAEDLAVYFCQQQYTTPYTFGGGTKLEIKT
 |  |  |  |  |  |  |  |  | 0.94 nM | 0.00023 s⁻¹ | 250000 M⁻¹ s⁻¹ | Anti-C1s antibody hz2-7(H1L2) (antibody, V domains shown, Humanized, human IgG1 / kappa; also called hz2-7(1L2)) VH: EVQLLESGGGLVQPGGSLRLSCAASGFTFSNYFMNWVRQAPGKGLEWVSEIRLKFTNYATHYADSVKGRFTISRDDSKSTLYLQMNSLRAEDTAVYYCTRDYGSRNGYFDYWGQGTLVTVSS VL: DIVMTQTPLSLPVTPGEPASISCRSSKSLLHSNGNTFLYWFLQKPGQSPQLLIYRMSNLASGVPDRFSGSGSGTDFTLKISRVEAEDVGVYYCMQHLEYPYTFGGGTKLEIKR
